Positions count from the first letter of the chain named. Values belong to the binder of their own block, whether it stands above or below them.
Columns and labels:
[1] = biological target: T1, recombinant HER3 (Cat. No. 348-RB, R&D Systems) (UniProt P21860 20-643); experiment: HRG-HER3 binding ELISA: HRGb1 coated, antibody dilutions premixed with 5 ug/ml recombinant His-tagged HER3, bound HER3 detected with anti-His HRP; blocked ligand HRG
T1 construct: Detected through a His tag; also called labeled recombinant HER3 protein

[2] = biological target: human HER3 on human cancer cell lines (human, UniProt P21860 20-1342); experiment: cell-based or functional assay

IC50 (read off the curve) [1]: ~0.7 µg/mL
B1: Clone 16 antibody (CL16), parental IgG1 (antibody, V domains shown)
VH: EVQLLESGGGLVQPGGSLRLSCAASGFTFSYYYMQWVRQAPGKGLEWVSYIGSSGGVTNYADSVKGRFTISRDNSKNTLYLQMNSLRAEDTAVYYCARVGLGDAFDIWGQGTMVTVSS
VL: QYELTQPPSASGTPGQRVTMSCSGSSSNIGLNYVSWYQQLPGTAPKLLISRNNQRPSGVPDRFSGSKSGTSASLAISGLRSEDEADYYCAAWDDSLSGEVFGGGTKLTVL
notes: also called Clone 16-PA; parental Clone 16 monoclonal antibody

potency by IC50 in HRGβ1-induced pHER3 ELISA, MCF-7 cells, against MM and AMG [2]: ~5 fold
B2: 2C2 monoclonal antibody (IgG1) (antibody, V domains shown)
VH: B1 VH
VL: B1 VL with Y2S, E3V, M20I, S26L, L96P, S97P, V100A
